Earlier results in article PMC8909277.

Columns and labels:
claudin-9 (Homo sapiens) = claudin-9 (Homo sapiens) (UniProt O95484); experiment: BLI
claudin-4 (Homo sapiens) = claudin-4 (Homo sapiens) (UniProt O14493); experiment: SPR
UniProt O14493, sequence (O14493 whole entry): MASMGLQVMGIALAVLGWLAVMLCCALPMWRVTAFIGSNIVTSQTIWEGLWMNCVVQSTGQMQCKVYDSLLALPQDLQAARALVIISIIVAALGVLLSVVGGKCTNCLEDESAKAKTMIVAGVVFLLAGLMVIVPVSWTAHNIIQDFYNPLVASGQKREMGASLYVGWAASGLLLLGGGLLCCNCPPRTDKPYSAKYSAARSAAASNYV

UniProt O95484, sequence (O95484 whole entry): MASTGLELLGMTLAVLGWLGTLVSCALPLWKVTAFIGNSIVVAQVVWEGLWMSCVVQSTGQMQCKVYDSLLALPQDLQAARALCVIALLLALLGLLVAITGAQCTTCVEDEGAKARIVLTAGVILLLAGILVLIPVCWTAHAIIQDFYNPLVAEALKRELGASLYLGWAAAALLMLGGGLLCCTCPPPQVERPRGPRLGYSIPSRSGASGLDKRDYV

Substance: cCpE C-terminal domain (from UniProt P01558)
- Kd (claudin-9 (Homo sapiens)): 5 nM
- Kd (claudin-4 (Homo sapiens)): 3.4 nM

Substance: CpE (from UniProt P01558)
- Kd (claudin-9 (Homo sapiens)): 5 nM
